Measurements published in the supplement of paper PMC7877785.
± gives the uncertainty stated by the source.

Assay: self-splicing fitness, log relative to wild type (ln ratio); higher = more splicing; Tetrahymena group I intron in knt gene, E. coli kanamycin selection, DiMSum; sequences stand for … in CUCUCU…GGAGGGAAAAGUUAUCAGGCAUGCACCUGGUAGCUAGUCUUUAAACCAAUAGAUUGCAUCGGUUUAAAAGGCAAGACCGUCAAAUUGCGGGAAAGGGGUCAACAGCCGUUCAGUACCAAGUCUCAGGGGAAACUUUGAGAUGGCCUUGCAAAGGGUAUGGUAAUAAGCUGACGGACAUGGUCCUAACCACGCAGCCAAGUCCUAAGUCAACAGAUCUUCUGUUGAUAUGGAUGCAGUUCACAGACUAAAUGUCGGUCGGGGAAGAUGUAUUCUUCUCAUAAGAUAUAGUCGGACCUCUCCUUAAUGGGAGCUAGCGGAUGAAGUGAUGCAACACUGGAGCCGCUGGGAACUAAUUUGUAUGCGAAAGUAUAUUGAUUAGUUUUGGAGUACUCGUGGUCG
Method in brief: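 Pooled colonies went to amplicon sequencing on an Illumina HiSeq 2500 after six replicate transformations. The plates were LB agar with 100 μg/mL carbenicillin, 50 μM IPTG and 0.2% rhamnose, with or without 25 μg/mL kanamycin, incubated overnight at 37°C or 30°C. The E. coli BL21(DE3) library had all eight P1ex-region intron nucleotides randomised, the intron placed in the knt kanamycin-resistance gene on pET-22b(+). DiMSum fitness is the error-weighted combination of replicate fold changes, kanamycin against none, normalised to wild type.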

Sequence	self-splicing fitness (ln) (30 °C)	self-splicing fitness (ln) (37 °C)
AGAAAGCAAUAUUACGGGGC	-4.36 ± 0.3	-2.05 ± 0.21
AGAAAGCAAUAUUACGGUAG	-3.84 ± 0.22	-2.37 ± 0.21
AGAAAGCAAUAUUACGUCGC	-2.69 ± 0.16	-1.76 ± 0.15
AGAAAGCAAUAUUACGUCUC	-2.56 ± 0.43	–
AGAAAGCAAUAUUACGUGUG	-2.13 ± 0.081	-1.78 ± 0.095
AGACAGCAAUAUUACGAAUG	-2.45 ± 0.11	-1.86 ± 0.12
AGACAGCAAUAUUACGAGAA	-2.15 ± 0.37	-2.43 ± 0.31
AGACAGCAAUAUUACGAGCA	-1.46 ± 0.12	-0.648 ± 0.13
AGACAGCAAUAUUACGAUUA	-1.15 ± 0.062	-0.971 ± 0.086
AGACAGCAAUAUUACGAUUG	-2.94 ± 0.16	-3.15 ± 0.28
AGACAGCAAUAUUACGCCAU	-3.25 ± 0.26	-1.78 ± 0.17
AGACAGCAAUAUUACGCCUG	-1.88 ± 0.12	0.171 ± 0.11
AGACAGCAAUAUUACGCUCU	-2.08 ± 0.18	-0.598 ± 0.15
AGACAGCAAUAUUACGCUUG	-2.71 ± 0.13	-1 ± 0.12
AGACAGCAAUAUUACGGGGC	-3.97 ± 0.23	-1.69 ± 0.17
AGACAGCAAUAUUACGGUGG	-3 ± 0.12	-1.89 ± 0.17
AGACAGCAAUAUUACGGUGU	-3.34 ± 0.12	-2.59 ± 0.12
AGACAGCAAUAUUACGUAAC	-3.82 ± 0.15	-1.69 ± 0.15
AGACAGCAAUAUUACGUCAG	-2.3 ± 0.092	-0.807 ± 0.11
AGACAGCAAUAUUACGUCAU	-2.86 ± 0.13	-2.17 ± 0.15
AGACAGCAAUAUUACGUCGA	-1.01 ± 0.089	-1.07 ± 0.12
AGACAGCAAUAUUACGUCUG	-1.6 ± 0.076	-0.662 ± 0.08
AGACAGCAAUAUUACGUGCC	-0.679 ± 0.12	-0.815 ± 0.17
AGACAGCAAUAUUACGUGCU	-3.14 ± 0.12	-1.56 ± 0.085
AGACAGCAAUAUUACGUGGG	-3.37 ± 0.13	-2.37 ± 0.13
AGAGAGCAAUAUUACGAAUA	–	-0.719 ± 0.49

Sequence	self-splicing fitness (ln) (30 °C)	self-splicing fitness (ln) (37 °C)
AGAGAGCAAUAUUACGACAA	–	-2.46 ± 0.48
AGAGAGCAAUAUUACGACCA	–	-0.796 ± 0.48
AGAGAGCAAUAUUACGACGG	-3.4 ± 0.28	–
AGAGAGCAAUAUUACGAGCG	-2.63 ± 0.3	–
AGAGAGCAAUAUUACGAUGA	-3.27 ± 0.24	-2.37 ± 0.23
AGAGAGCAAUAUUACGAUUA	-2.43 ± 0.25	-2.57 ± 0.32
AGAGAGCAAUAUUACGCACA	-3.27 ± 0.48	–
AGAGAGCAAUAUUACGCCCA	–	-0.88 ± 0.36
AGAGAGCAAUAUUACGCCGC	-3.9 ± 0.3	-1.49 ± 0.25
AGAGAGCAAUAUUACGCGGA	–	-2.21 ± 0.34
AGAGAGCAAUAUUACGGACC	-2.79 ± 0.3	-1.05 ± 0.33
AGAGAGCAAUAUUACGGGGU	–	-2.65 ± 0.26
AGAGAGCAAUAUUACGGGUA	-4.04 ± 0.42	-1.47 ± 0.19
AGAGAGCAAUAUUACGGUAC	–	-2.12 ± 0.27
AGAGAGCAAUAUUACGGUCA	-2.48 ± 0.49	-1.97 ± 0.24
AGAGAGCAAUAUUACGGUUC	-4.09 ± 0.37	-2.11 ± 0.29
AGAGAGCAAUAUUACGUCCC	-2.37 ± 0.33	-1.25 ± 0.37
AGAGAGCAAUAUUACGUGUA	-2.73 ± 0.3	-2.78 ± 0.32
AGAGAGCAAUAUUACGUUGC	-2.89 ± 0.23	-2.89 ± 0.32
AGAUAGCAAUAUUACGAAAC	-3.23 ± 0.37	–
AGAUAGCAAUAUUACGAACC	0.553 ± 0.29	-0.637 ± 0.27
AGAUAGCAAUAUUACGAAGA	–	-1.12 ± 0.39
AGAUAGCAAUAUUACGAAGG	-2.57 ± 0.2	–
AGAUAGCAAUAUUACGAAGU	-3.27 ± 0.14	-1.83 ± 0.13
AGAUAGCAAUAUUACGACAA	-0.741 ± 0.072	-0.217 ± 0.077
AGAUAGCAAUAUUACGAGAG	-3.7 ± 0.29	-2.37 ± 0.25

Sequence	self-splicing fitness (ln) (30 °C)	self-splicing fitness (ln) (37 °C)
AGAUAGCAAUAUUACGAGCU	-0.432 ± 0.13	-1.02 ± 0.13
AGAUAGCAAUAUUACGAGGU	-2.94 ± 0.24	-2.17 ± 0.24
AGAUAGCAAUAUUACGCAUG	-1.58 ± 0.14	-0.884 ± 0.14
AGAUAGCAAUAUUACGCCAC	–	-2.5 ± 0.35
AGAUAGCAAUAUUACGCCGG	-2.14 ± 0.44	–
AGAUAGCAAUAUUACGCGCC	-0.504 ± 0.15	-0.626 ± 0.27
AGAUAGCAAUAUUACGCGGC	-3.16 ± 0.22	-3.59 ± 0.42
AGAUAGCAAUAUUACGCUGG	-3.38 ± 0.34	-1.56 ± 0.25
AGAUAGCAAUAUUACGCUUC	-2.66 ± 0.42	-2.27 ± 0.49
AGAUAGCAAUAUUACGCUUG	-2.48 ± 0.12	-0.783 ± 0.13
AGAUAGCAAUAUUACGGACG	-0.861 ± 0.15	-0.892 ± 0.15
AGAUAGCAAUAUUACGGAGG	-4.37 ± 0.26	-3.22 ± 0.26
AGAUAGCAAUAUUACGGGCU	-1.34 ± 0.15	-1.38 ± 0.21
AGAUAGCAAUAUUACGGUCC	-1.27 ± 0.14	-1.03 ± 0.18
AGAUAGCAAUAUUACGUAAA	-2.53 ± 0.17	-1.74 ± 0.14
AGAUAGCAAUAUUACGUAAC	-3.68 ± 0.35	-2.01 ± 0.23
AGAUAGCAAUAUUACGUAGU	-2.61 ± 0.11	-2.46 ± 0.15
AGAUAGCAAUAUUACGUCAG	-2.66 ± 0.15	-1.01 ± 0.13
AGAUAGCAAUAUUACGUGAA	-1.95 ± 0.082	-1.85 ± 0.12
AGCAAGCAAUAUUACGAAAC	-4.25 ± 0.25	-1.03 ± 0.13
AGCAAGCAAUAUUACGACCG	-0.988 ± 0.069	-0.512 ± 0.097
AGCAAGCAAUAUUACGACUU	0.234 ± 0.098	-0.294 ± 0.11
AGCAAGCAAUAUUACGAUAG	-2.98 ± 0.21	-2.04 ± 0.2
AGCAAGCAAUAUUACGAUCA	-0.258 ± 0.084	-0.0192 ± 0.099
AGCAAGCAAUAUUACGCAAA	-3.11 ± 0.27	-2.23 ± 0.24
AGCAAGCAAUAUUACGCAAU	-2.54 ± 0.15	-1.41 ± 0.13

Sequence	self-splicing fitness (ln) (30 °C)	self-splicing fitness (ln) (37 °C)
AGCAAGCAAUAUUACGCACG	-1.44 ± 0.097	-0.144 ± 0.13
AGCAAGCAAUAUUACGCAUG	-3.32 ± 0.16	-2.74 ± 0.2
AGCAAGCAAUAUUACGCGAA	-2.39 ± 0.1	-0.85 ± 0.099
AGCAAGCAAUAUUACGCGCA	-0.742 ± 0.07	0.548 ± 0.11
AGCAAGCAAUAUUACGCGCU	–	-2.2 ± 0.32
AGCAAGCAAUAUUACGCGUU	-2.89 ± 0.17	-2.44 ± 0.19
AGCAAGCAAUAUUACGGACA	-1.12 ± 0.14	-0.766 ± 0.14
AGCAAGCAAUAUUACGGAGA	-3.25 ± 0.17	-2.35 ± 0.19
AGCAAGCAAUAUUACGGAGG	-4.63 ± 0.46	-2.28 ± 0.33
AGCAAGCAAUAUUACGGCAC	-0.889 ± 0.08	-0.371 ± 0.11
AGCAAGCAAUAUUACGGCCU	-0.383 ± 0.094	0.167 ± 0.13
AGCAAGCAAUAUUACGGGAG	-3.68 ± 0.19	-1.78 ± 0.13
AGCAAGCAAUAUUACGGGCU	-2.45 ± 0.22	-2.09 ± 0.31
AGCAAGCAAUAUUACGGGUC	-2.05 ± 0.22	-1.82 ± 0.21
AGCAAGCAAUAUUACGUAAA	-2.29 ± 0.14	-0.968 ± 0.15
AGCAAGCAAUAUUACGUACA	-1.22 ± 0.074	-0.296 ± 0.085
AGCAAGCAAUAUUACGUGCU	-2.38 ± 0.14	-2.07 ± 0.16
AGCAAGCAAUAUUACGUUAU	-2.78 ± 0.11	-1.54 ± 0.12
AGCAAGCAAUAUUACGUUCU	-0.601 ± 0.084	-0.279 ± 0.087
AGCAAGCAAUAUUACGUUUA	-2.1 ± 0.13	-1.96 ± 0.15
AGCCAGCAAUAUUACGAACU	-0.257 ± 0.11	0.407 ± 0.14
AGCCAGCAAUAUUACGACUC	-4.9 ± 0.46	-2.49 ± 0.27
AGCCAGCAAUAUUACGAGUC	–	-1.61 ± 0.21
